Data from patent US11001824 (UNIVERSITY OF GEORGIA RESEARCH FOUNDATION, dated 2021).
Substitutions are numbered along the chain they refer to. In names and notes the source's numbering stands.

How the values were obtained:
[1] = biological target: T1, denatured bovine pancreatic Ribonuclease B (bovine, UniProt P61823 27-150); experiment: SPR (Biacore 3000), dRNase B immobilised on CM5
T1 construct: mature; also called dRNase B; denatured RNase B
T1 sequence: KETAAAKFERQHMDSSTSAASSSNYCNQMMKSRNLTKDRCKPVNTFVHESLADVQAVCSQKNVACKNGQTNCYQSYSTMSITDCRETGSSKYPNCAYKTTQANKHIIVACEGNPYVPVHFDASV

[2] = biological target: T1, denatured bovine pancreatic …; experiment: experimental binding free energy from SPR with dRNase B, relative to D60A
[3] = biological target: T1, denatured bovine pancreatic …; experiment: SPR (Biacore 3000), dRNase B immobilised on CM5, steady state
[4] = biological target: T1, denatured bovine pancreatic …; experiment: SPR (Biacore 3000), dRNase B immobilised on CM5; calculated from KD
Histone H2A type 2-C = biological target: T2, Histone H2A type 2-C (human); experiment: R911 affinity column, MCF7 cell extract, chitobiose elution, LC-MS/MS
T2 construct: From MCF7 cell extract; also called H2A2C

Histone H2A.Z = biological target: T3, Histone H2A.Z (human); experiment: as above
T3 construct: From MCF7 cell extract
T3 sequence (chain, as listed by the source limits assumed): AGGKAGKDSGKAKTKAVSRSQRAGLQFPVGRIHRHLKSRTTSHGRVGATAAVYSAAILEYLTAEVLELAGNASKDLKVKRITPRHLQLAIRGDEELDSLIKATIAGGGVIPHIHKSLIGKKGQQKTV

Histone H2A type 1-B/E = biological target: T4, Histone H2A type 1-B/E (human); experiment: as above
T4 construct: From MCF7 cell extract; also called H2A1B

Histone H2A.x = biological target: T5, Histone H2A.x (human, UniProt P16104 2-143); experiment: as above
T5 construct: From MCF7 cell extract

[5] = biological target: T1, denatured bovine pancreatic …; experiment: experimental binding free energy from SPR with denatured RNase B
[6] = biological target: T6, RNase B deglycosylated with PNGase F (bovine, UniProt P61823 27-150); experiment: R911 affinity chromatography
T6 construct: mature; also called deglycosylated RNase B
T6 sequence: T1 sequence with N34D

B1: wild-type PNGase F from Flavobacterium meningosepticum (enzyme)
chain: GIPAPADNTVNIKTFDKVKNAFGDGLSQSAEGTFTFPADVTAVKTIKMFIKNECPNKTCDEWDRYANVYVKNKTTGEWYEIGRFITPYWVGTEKLPRGLEIDVTDFKSLLSGNTELKIYTETWLAKGREYSVDFDIVYGTPDYKYSAVVPVVQYNKSSIDGVPYGKAHTLALKKNIQLPTNTEKAYLRTTISGWGHAKPYDAGSRGCAEWCFRTHTIAINNSNTFQHQLGALGCSANPINNQSPGNWTPDRAGWCPGMAVPTRIDVLNNSLIGSTFSYEYKFQNWTNNGTNGDAFYAISSFVIAKSNTPISAPVVTNLDPHHHHHH
notes: also called wtPNGase F; 1PNF
For B1, the koff [1] was 0.01 s⁻¹, the “ΔΔGBIND-EXP (relative to D60A)” value [2] was 0.5 kcal/mol and the Kd [3] was 6400 nM. For the same binder, the ΔGBIND-EXP [4] was -7.1 kcal/mol.

B2: PNGase F clone R911 C60A (D57L, D60A, I156L, G192I, E206S, R248W) (designed binder)
chain: B1 chain with D60L, D63A, I159L, G195I, E209S, R251W
B2 was tested, and the “Relative Affinity Enhancement (against D60A)” value (“Relative Affinity Enhancement” below) [1] was 1.3 fold, the “Relative Off-Rate Enhancement (against D60A)” value (shortened to “Relative Off-Rate Enhancement”) [1] was 35 fold and the koff [1] was 0.012 s⁻¹. The “ΔΔGBIND-EXP (relative to D60A)” value [2] was -0.7 kcal/mol, the Kd [3] was 2000 nM and the ΔGBIND-EXP [4] was -7.77 kcal/mol.

B3: PNGase F D60A single point mutant (enzyme)
chain: B1 chain with D63A
notes: also called D60A control clone
For B3, the “Relative Affinity Enhancement” value [1] was 1 fold, the “Relative Off-Rate Enhancement” value [1] was 1 fold and the koff [1] was 0.43 s⁻¹. It also gave a Kd [3] of 2700 nM and a ΔGBIND-EXP [4] of -7.61 kcal/mol.

B4: PNGase F clone R911 (D57L, D60C, I156L, G192I, E206S, R248W) (designed binder)
chain: B1 chain with D60L, D63C, I159L, G195I, E209S, R251W
B4: binds (Histone H2A type 2-C); binds (Histone H2A.Z); binds (Histone H2A type 1-B/E). For the same binder, the binding result (Histone H2A.x) was “binds”, the “Relative Affinity Enhancement” value [1] was 10 fold and the “Relative Off-Rate Enhancement” value [1] was 84 fold. The koff [1] was 0.0051 s⁻¹, the “ΔΔGBIND-EXP (relative to R911 C60A)” value [5] was -1.2 kcal/mol and the “ΔΔGBIND-EXP (relative to D60A)” value [2] was -1.9 kcal/mol. The Kd [3] was 260 nM, the binding result [6] was “no binding” and the ΔGBIND-EXP [4] was -8.99 kcal/mol.
